Values of other authors, collected in publication PMC9731471.

Target: podoplanin (Homo sapiens) (UniProt Q86YL7)

For CLEC-2 (from UniProt Q9P126), the Kd is given as 24 µM.
